The source of these data is PMC6264893.

Experiment [1] addresses prothymosin α (unlabeled, wildtype) (human) (UniProt P06454). As to the kind of experiment: NMR titration.
The target in experiment [2] is ProTα labeled at positions 56 and 110 (FRET-labeled prothymosin α) (human) (UniProt P06454). Put plainly: FRET or BRET. (Bioluminescence resonance energy transfer reports proximity on the nanometre scale.)
For experiment [3] the target is unchanged. Put plainly: stopped-flow FRET kinetics.

Sequence of linker histone H1.0 (P07305 whole entry): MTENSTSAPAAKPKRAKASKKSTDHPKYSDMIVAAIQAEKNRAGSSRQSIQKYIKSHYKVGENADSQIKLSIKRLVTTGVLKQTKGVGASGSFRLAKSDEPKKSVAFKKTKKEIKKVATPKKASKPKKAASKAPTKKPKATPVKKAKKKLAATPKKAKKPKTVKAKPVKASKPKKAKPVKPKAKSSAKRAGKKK

As for “globular domain of H1 (domain or fragment)”, the stoichiometry N – broadly, a count of units in the complex or per binding partner – in experiment [1] was greater than 4. Also, in experiment [2], the dissociation constant Kd (commonly the concentration at which binding is half-saturated) worked out at 1900 nM.
As to “linker histone H1.0 (from UniProt P07305 1-194) (natural protein)”, the off-rate constant (koff) (usually a measure of how fast the partners let go of each other) in experiment [3] is 0.0065 s⁻¹.
